Measured values published in paper PMC9482650, “Quantitative fragmentomics allow affinity mapping of interactomes” (Nature Communications, 2022).

How the values were obtained:
Test in all cases: holdup assay
Parameters in all cases: key: below the threshold = too weak to quantify, mostly under pKd 3.1 to 4
[1] = biological target: MAST3, O60307
[2] = biological target: MAGI3_3, Q5TCQ9
[3] = biological target: T1, LNX2_4, Q8N448
T1 sequence (Q8N448 595-690, limits assumed, looked up): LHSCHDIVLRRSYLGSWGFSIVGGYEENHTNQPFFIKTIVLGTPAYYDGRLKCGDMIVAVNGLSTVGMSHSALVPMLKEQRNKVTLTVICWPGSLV

[4] = biological target: PARD3B_3, Q8TEW8
[5] = biological target: T2, PTPN13_5, Q12923
T2 sequence (Q12923 1877-1975, limits assumed, looked up): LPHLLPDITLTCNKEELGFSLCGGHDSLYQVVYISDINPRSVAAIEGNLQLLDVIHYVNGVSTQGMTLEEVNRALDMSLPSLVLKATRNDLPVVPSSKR

[6] = biological target: T3, NHERF1_1, O14745
T3 sequence (O14745 9-104, limits assumed, looked up): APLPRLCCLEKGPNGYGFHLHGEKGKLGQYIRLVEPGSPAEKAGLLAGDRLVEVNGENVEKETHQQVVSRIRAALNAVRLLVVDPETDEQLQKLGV

[7] = biological target: T4, GIPC1, O14908
T4 sequence (O14908 128-223, limits assumed, looked up): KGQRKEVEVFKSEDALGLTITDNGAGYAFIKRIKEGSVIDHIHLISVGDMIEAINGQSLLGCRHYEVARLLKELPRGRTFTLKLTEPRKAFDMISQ

[8] = biological target: MAGI3_6, Q5TCQ9
[9] = biological target: PDLIM4, P50479
[10] = biological target: DLG5_2, Q8TDM6
[11] = biological target: T5, PARD6B, Q9BYG5
T5 sequence (Q9BYG5 152-260, limits assumed, looked up): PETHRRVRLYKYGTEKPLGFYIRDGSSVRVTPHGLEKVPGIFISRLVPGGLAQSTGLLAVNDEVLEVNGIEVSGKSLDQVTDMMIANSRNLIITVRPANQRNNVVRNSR

[12] = biological target: Inadl_7, Q8NI35
[13] = biological target: T6, PDZD7_1, Q9H5P4
T6 sequence (Q9H5P4 81-178, limits assumed, looked up): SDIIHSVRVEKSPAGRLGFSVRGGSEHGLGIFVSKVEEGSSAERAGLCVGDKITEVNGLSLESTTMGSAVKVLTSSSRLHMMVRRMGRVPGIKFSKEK

[14] = biological target: T7, PDZD2_4, O15018
T7 sequence (O15018 723-823, limits assumed, looked up): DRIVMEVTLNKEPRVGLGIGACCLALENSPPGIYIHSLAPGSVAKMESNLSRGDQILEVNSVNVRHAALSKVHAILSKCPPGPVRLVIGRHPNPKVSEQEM

[15] = biological target: RIMS1, Q86UR5
[16] = biological target: T8, CNKSR1, Q969H4
T8 sequence (Q969H4 191-295, limits assumed, looked up): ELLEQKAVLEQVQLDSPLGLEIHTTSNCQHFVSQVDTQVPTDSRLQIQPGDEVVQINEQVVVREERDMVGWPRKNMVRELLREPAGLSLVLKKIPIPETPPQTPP

[17] = biological target: T9, MPDZ_2, O75970
T9 sequence (O75970 252-347, limits assumed, looked up): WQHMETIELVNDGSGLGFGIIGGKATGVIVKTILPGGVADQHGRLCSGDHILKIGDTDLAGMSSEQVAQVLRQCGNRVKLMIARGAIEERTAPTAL

[18] = biological target: PDZRN4_2, Q6ZMN7
[19] = biological target: NHERF2_1, Q15599
[20] = biological target: PARD3_1, Q8TEW0
[21] = biological target: SCRIB_4, Q14160
[22] = biological target: T10, PDLIM3, Q53GG5
T10 sequence (Q53GG5 1-94, limits assumed, looked up): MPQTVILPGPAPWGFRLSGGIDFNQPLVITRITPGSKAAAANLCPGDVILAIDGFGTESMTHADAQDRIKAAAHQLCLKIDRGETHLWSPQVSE

[23] = biological target: T11, PDZD2_5, O15018
T11 sequence (O15018 2617-2716, limits assumed, looked up): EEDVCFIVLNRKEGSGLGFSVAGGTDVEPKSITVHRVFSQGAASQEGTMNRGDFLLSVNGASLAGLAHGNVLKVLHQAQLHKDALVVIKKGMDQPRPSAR

[24] = biological target: T12, USH1C_1, Q9Y6N9
T12 sequence (Q9Y6N9 82-179, limits assumed, looked up): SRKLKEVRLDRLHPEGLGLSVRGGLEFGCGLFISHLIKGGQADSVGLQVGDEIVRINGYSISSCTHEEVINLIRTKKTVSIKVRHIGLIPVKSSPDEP

[25] = plain residues with an end cap or a label only (N-terminal biotin on a linker: (peg)3)
[26] = modified: acetyl on K at position -1 from the C-terminal residue
[27] = modified: phospho on S at position -3 from the C-terminal residue

Chain of MAST3, O60307 (O60307 945-1048): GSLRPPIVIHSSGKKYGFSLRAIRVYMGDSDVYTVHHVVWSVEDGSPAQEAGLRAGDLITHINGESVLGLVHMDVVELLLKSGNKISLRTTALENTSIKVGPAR
Chain of PDZRN4_2, Q6ZMN7 (Q6ZMN7 389-498): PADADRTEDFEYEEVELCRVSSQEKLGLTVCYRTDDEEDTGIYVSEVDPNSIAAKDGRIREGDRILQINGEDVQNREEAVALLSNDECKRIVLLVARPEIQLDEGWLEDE
Chain of PARD3_1, Q8TEW0 (Q8TEW0 264-372): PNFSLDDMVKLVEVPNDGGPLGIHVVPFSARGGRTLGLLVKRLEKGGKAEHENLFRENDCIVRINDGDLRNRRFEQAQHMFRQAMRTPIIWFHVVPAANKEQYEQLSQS
Chain of Inadl_7, Q8NI35 (Q8NI35 1219-1332): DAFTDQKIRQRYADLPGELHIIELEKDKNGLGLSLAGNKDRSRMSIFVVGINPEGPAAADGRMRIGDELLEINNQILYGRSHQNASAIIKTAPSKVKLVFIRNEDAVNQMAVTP
Chain of SCRIB_4, Q14160 (Q14160 1095-1204): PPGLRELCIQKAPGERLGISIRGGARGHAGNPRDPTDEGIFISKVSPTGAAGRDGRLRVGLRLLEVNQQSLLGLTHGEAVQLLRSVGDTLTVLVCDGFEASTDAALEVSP
Chain of MAGI3_3, Q5TCQ9 (Q5TCQ9 572-655): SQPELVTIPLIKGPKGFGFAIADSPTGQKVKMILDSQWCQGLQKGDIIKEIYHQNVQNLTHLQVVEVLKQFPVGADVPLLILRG
Chain of RIMS1, Q86UR5 (Q86UR5 584-692): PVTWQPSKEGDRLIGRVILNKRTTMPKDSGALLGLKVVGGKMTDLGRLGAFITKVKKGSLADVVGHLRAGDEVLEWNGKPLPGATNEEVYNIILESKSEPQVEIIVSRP
Chain of DLG5_2, Q8TDM6 (Q8TDM6 714-800): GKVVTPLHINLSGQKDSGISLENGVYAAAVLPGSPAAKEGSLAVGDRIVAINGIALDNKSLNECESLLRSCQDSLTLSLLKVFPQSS
Chain of MAGI3_6, Q5TCQ9 (Q5TCQ9 1014-1103): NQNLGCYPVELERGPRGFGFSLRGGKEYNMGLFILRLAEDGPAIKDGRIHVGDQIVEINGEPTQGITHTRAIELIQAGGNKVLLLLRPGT
Chain of PDLIM4, P50479 (P50479 1-83): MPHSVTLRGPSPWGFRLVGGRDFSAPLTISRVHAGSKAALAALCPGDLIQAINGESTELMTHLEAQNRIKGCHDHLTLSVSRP
Chain of NHERF2_1, Q15599 (Q15599 9-91): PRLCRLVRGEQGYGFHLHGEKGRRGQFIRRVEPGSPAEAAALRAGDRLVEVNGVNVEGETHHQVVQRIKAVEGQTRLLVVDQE
Chain of PARD3B_3, Q8TEW8 (Q8TEW8 490-594): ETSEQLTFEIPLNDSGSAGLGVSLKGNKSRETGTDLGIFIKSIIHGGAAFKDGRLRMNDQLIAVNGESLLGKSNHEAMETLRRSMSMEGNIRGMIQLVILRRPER

B1: SARS-Cov2-3a, P0DTC3 (peptide)
chain: YDEPTTTTSVPL
pKd [1, 25]: below the threshold | pKd [2, 25]: below the threshold | pKd [3, 25]: below the threshold | pKd [4, 25]: below the threshold | pKd [5, 25]: below the threshold | pKd [6, 25]: below the threshold | pKd [7, 25]: below the threshold | pKd [8, 25]: below the threshold | pKd [9, 25]: below the threshold | pKd [10, 25]: below the threshold | pKd [11, 25]: below the threshold | pKd [12, 25]: below the threshold | pKd [13, 25]: below the threshold | pKd [14, 25]: below the threshold | pKd [15, 25]: below the threshold | pKd [16, 25]: below the threshold | pKd [17, 25]: below the threshold | pKd [18, 25]: below the threshold | pKd [19, 25]: below the threshold | pKd [20, 25]: 3.98 | pKd [21, 25]: below the threshold | pKd [22, 25]: below the threshold | pKd [23, 25]: below the threshold | pKd [24, 25]: below the threshold

B2: PTEN_Ac, P60484 (peptide)
chain: DEDQHTQITKV
pKd [1, 26]: 4.06 | pKd [2, 26]: below the threshold | pKd [3, 26]: below the threshold | pKd [4, 26]: below the threshold | pKd [5, 26]: below the threshold | pKd [6, 26]: 4.85 | pKd [7, 26]: below the threshold | pKd [8, 26]: 4.08 | pKd [9, 26]: below the threshold | pKd [10, 26]: below the threshold | pKd [11, 26]: below the threshold | pKd [12, 26]: 4.2 | pKd [13, 26]: below the threshold | pKd [14, 26]: below the threshold | pKd [15, 26]: below the threshold | pKd [16, 26]: 3.66 | pKd [17, 26]: 4.3 | pKd [18, 26]: below the threshold | pKd [19, 26]: below the threshold | pKd [20, 26]: below the threshold | pKd [21, 26]: below the threshold | pKd [22, 26]: below the threshold | pKd [23, 26]: below the threshold | pKd [24, 26]: below the threshold

B3: RPS6KA1_-3P, Q15418 (peptide)
chain: RRVRKLPSTTL
pKd [1, 27]: below the threshold | pKd [2, 27]: below the threshold | pKd [3, 27]: below the threshold | pKd [4, 27]: below the threshold | pKd [5, 27]: below the threshold | pKd [6, 27]: below the threshold | pKd [7, 27]: below the threshold | pKd [8, 27]: below the threshold | pKd [9, 27]: 3.63 | pKd [10, 27]: below the threshold | pKd [11, 27]: below the threshold | pKd [12, 27]: below the threshold | pKd [13, 27]: below the threshold | pKd [14, 27]: below the threshold | pKd [15, 27]: below the threshold | pKd [16, 27]: 3.49 | pKd [17, 27]: below the threshold | pKd [18, 27]: below the threshold | pKd [19, 27]: below the threshold | pKd [20, 27]: below the threshold | pKd [21, 27]: below the threshold | pKd [22, 27]: below the threshold | pKd [23, 27]: below the threshold | pKd [24, 27]: below the threshold
